The supplement of paper PMC10567573
± gives the standard deviation.

Experiment: protein stability index of a GFP-peptide fusion (GPS, HEK-293T) (PSI 1-6); higher = more stable
Conditions: c terminus: a fixed tail appended
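Note: 24-mer peptide tiles fused after GFP, lentivirally expressed, FACS-sorted into six equal bins by GFP/DsRed ratio, decoded by Illumina sequencing, PSI is the read-weighted mean bin number.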

Row | Sequence | protein stability index (treatment: DMSO) | protein stability index (treatment: MLN4924 1 uM, 8 h)
1 | VLREDQIPRGFPTIDMGPQLKVVE [PTPRD] | 3.898 ± 0.018 | 3.34 ± 1.1
2 | VLRLCCKKLKIFAMPMQDIKMILK [PRAME] | 2.81 ± 0.38 | 2.73 ± 0.52
3 | VMRTKSSEKAANDDHSVRVAREDV [CPXM2] | 5.08 ± 0.54 | 5.16 ± 0.35
4 | VNNYTNSFGGEWSAPDTMKRYSMY [TRIM29] | 2.32 ± 0.19 | 2.62 ± 0.3
5 | VNSQFTAAVFKETFKSLSHIDPDV [ALG2] | 2.86 ± 0.47 | 3.05 ± 0.33
6 | VPDVKEMEKSSFTEYIESPDVENE [TAF7L] | 5.59 ± 0.17 | 5.61 ± 0.23
7 | VPLQLSAHWQCGATLTQVSVEYGY [FCHO1] | 2.76 ± 0.76 | 2.6 ± 0.67
8 | VPQAPRRLRASFSRKPSLKGNRED [PLEKHN1] | 4.71 ± 0.097 | 4.83 ± 0.13
9 | VQAIFSGDPEEIRMLIHKTEDVNT [ANKRD44] | 3.76 ± 0.11 | 3.58 ± 0.11
10 | VRILLEHYYKENDPSVRLKIASLL [INTS4] | 2.09 ± 0.33 | 2.41 ± 0.4
11 | VRNLQSEVEGVKNIMTQNVERILA [VAMP8] | 3.01 ± 0.41 | 2.96 ± 0.51
12 | VSAIIWEGNECKKMDMSVLEISGI [PHTF1] | 2.11 ± 0.58 | 2.41 ± 0.83
13 | VSASRDKTLRVWDLKDDGNMMKVL [WSB1] | 3.2 ± 0.09 | 3.35 ± 0.25
14 | VSLLENNIYVHDLLTFQQITTVSK [VPS39] | 2.97 ± 0.35 | 2.41 ± 0.49
15 | VSSVFLLTLSIAFICCAQVKVSHL [PHTF1] | 3.57 ± 0.43 | 3.02 ± 0.58
16 | VSVIQSIPIFNETGRFSFTLPYPV [HACD3] | 2.91 ± 0.72 | 2.68 ± 0.76
17 | VSYRGAWWYRNCHYANLNGLYGST [TNXB] | 2.49 ± 0.46 | 2.26 ± 0.86
18 | VTKVTAVDADAGHNAWLSYSLLPQ [PCDHGC5] | 2.41 ± 0.39 | 2.29 ± 0.21
19 | VTSFPDADAFHHQVHDDDLLSSSE [EMD] | 5.38 ± 0.33 | 5.33 ± 0.21
20 | VVCAFFKQGQCTKGDKCKFSHDLT [ZC3H15] | 4.26 ± 0.64 | 4.1 ± 0.47
21 | VVDKDKRNQCRYCRLKKCFRAGMK [HNF4A] | 2.51 ± 0.065 | 2.75 ± 0.39
22 | VVWNAQTGEKLLELNGHTQKITAI [WDR41] | 2.19 ± 0.2 | 2.31 ± 0.17
23 | VYASDKEWIRFDQSNVLCSIFGIC [PTGFR] | 2.56 ± 1.4 | 2.24 ± 0.78
24 | WAFSCGTWLPSRAEWLLAVRSIQP [AASDHPPT] | 2.65 ± 0.65 | 2.6 ± 0.64
25 | WDKEPWFWHDTLTEQLWRIFAGVH [TLE6] | 2.61 ± 0.82 | 2.22 ± 0.57
26 | WGGKAETERGLSRKHIIEGLKASL [KCNAB2] | 2.26 ± 0.29 | 2.02 ± 0.21

Row | Sequence | protein stability index (treatment: DMSO) | protein stability index (treatment: MLN4924 1 uM, 8 h)
27 | WIQFNHPYTEKPRLWHTACASDEG [KLHDC2] | 2.28 ± 0.31 | 2.4 ± 0.13
28 | WKFPVPVLKTSRSTPLSPAYISLV [KLHL13] | 2.48 ± 0.42 | 2.26 ± 0.1
29 | WKSHLRNVQRPLLQAPFLPPKPPP [RHOBTB2] | 3.03 ± 0.21 | 3.15 ± 0.32
30 | WLPLATLIDEKVLILHGGVSDITD [PPEF2] | 2.22 ± 0.64 | 2.4 ± 0.58
31 | WLPYLYTLQGLYLVYHPVQLSTPH [DHCR7] | 3 ± 0.25 | 2.91 ± 0.34
32 | WRMLRPQLVNSSADNMLEYKSWLK [PPEF2] | 2.64 ± 0.49 | 2.7 ± 0.39
33 | YAELGQCSVFPATDAPEQFISQVT [PLK2] | 2.67 ± 0.16 | 3.04 ± 0.41
34 | YAVENEHMNRLQSQRAMLLQGTES [VTI1B] | 3.94 ± 0.31 | 4.1 ± 0.2
35 | YDFDTQYAFVGDYSGQITLLKLEQ [WDFY1] | 2.19 ± 0.11 | 2.33 ± 0.27
36 | YDPWNAPEGIQKVAKCLIGVNYPK [CRY1] | 2.69 ± 0.13 | 2.87 ± 0.16
37 | YEIEIQAEDGGAYLATAKVLITVE [PCDHGA10] | 2.96 ± 0.39 | 2.89 ± 0.91
38 | YFFPVIFSKASDSLQLVFGIELME [MAGEA6] | 3 ± 0.29 | 3.02 ± 0.54
39 | YGALSSNLQPPASLQTGNHSNGPT [NOL4L] | 4.39 ± 0.22 | 4.44 ± 0.18
40 | YGSGDTPGGPCDSTLGGDIRESDP [TBX6] | 5.25 ± 0.31 | 5.27 ± 0.61
41 | YLIMIFLGLYINFRHLYKQRRRRY [HACD3] | 2.55 ± 0.86 | 2.53 ± 0.63
42 | YPITLYLEKEREKEISDDEAEEEK [HSP90AB1] | 5.01 ± 0.39 | 5.3 ± 0.083
43 | YPPPPPALPSSAPSGPPPPPPSVL [WASL] | 4.54 ± 0.2 | 4.5 ± 0.16
44 | YQELNYRSVEEAPVYSVPQLLSAM [SCNN1D] | 2.49 ± 0.34 | 2.69 ± 0.29
45 | YQLGEEAMEKFREDEGFLREEERP [KCNA3] | 5.13 ± 0.2 | 5.27 ± 0.24
46 | YSAEQFCVSRNSHLTSVTSESEQE [CD207] | 5.23 ± 0.21 | 5.13 ± 0.32
47 | YSSGPQSWYPKANNQDFIPFTKKR [ZC2HC1C] | 3.07 ± 0.54 | 3.68 ± 0.22
48 | YSVARQFNLTPPICEQAEYHMFQR [KCNAB2] | 2.64 ± 0.23 | 2.93 ± 0.29
49 | YTDNSIRPEELLQMELLLVNKLKW [CCND1] | 2.14 ± 0.12 | 2.37 ± 0.29
50 | YTGIVLLRCRKEFYQLVWSALPFI [POP5] | 3.12 ± 0.41 | 3.05 ± 0.47
51 | YWKLQIFFTNVIQALGEHLKLRQQ [CCNC] | 2.66 ± 0.84 | 2.46 ± 0.38
52 | YYSCERAKKAMGYQPLVTMDDAME [NSDHL] | 3.97 ± 0.34 | 3.71 ± 0.45
